The supplement of paper PMC9170038

Tested on: MS2 coat protein
Test: apparent KD of MS2 coat protein; designed switch direction (-1 OFF switch, 1 ON switch): -1; higher = weaker reporter binding
Summary of the method: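 Designed RNA switches with common flanks were transcribed on Illumina chips by stalled E. coli RNA polymerase and titrated with SNAP-549-labelled MS2 coat protein, from 0.7 or 1.5 nM doubling to 3 µM, in Tris-HCl pH 7.5 buffer with KCl, MgCl2, BSA, DTT, tRNA and Tween-20. Steps lasted 0.8–1.5 h (lowest) to 10–20 min (highest). Titrations ran without input, with 200 uM small-molecule ligand, or with an oligonucleotide input. Normalised cluster fluorescence was curve-fitted, and apparent KD is the per-design median over clusters.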

[1] = Eterna round: R95, input ligand: FMN 200 uM
[2] = Eterna round: R95, input ligand: microRNA oligo, concentration not stated
[3] = Eterna round: R95, input ligand: none
[4] = input ligand: microRNA oligo, concentration not stated

Sequence | apparent KD of MS2 coat protein [2] | apparent KD of MS2 coat protein (input ligand: FMN 200 uM) | apparent KD of MS2 coat protein (input ligand: none) | further results
UUAUAGAGAGGAUAUAUAAUGUGAAACAUGAGGAUCACCCAUGUAAUAUUAUGGAUGUAAAUAGAAGGCUCAAUUU [Mat - Exclusion 5 - JL mod - D14] (puzzle: Exclusion 5) | 30.6 nM | – | – | apparent KD of MS2 coat protein [1]: 29.3 nM; apparent KD of MS2 coat protein [3]: 32.4 nM
GUUUCACAUGAGGAUCACCCAUGUGAGGAUAUAGAUUUGUUAGUCGUAAUUGAUAGAUUUAGAAGGCGCGUGAU [JR_Exc1_Sub002] (Eterna round: R97, puzzle: Exclusion 1) | – | 27.4 nM | 25.2 nM | –
UUUUUGUGAGGAUAUCAGUAGUAGAACAAUAGUACUACUACUGAGAAGGUACAUGAGGAUCACCCAUGUUCCUC [Fiskers Ex 4 Super stable 44 mod 13] (puzzle: Exclusion 4) | 19.5 nM | – | – | –
CAGAGCUUUUACUCGUCUUACAUGAGGAUCACCCAUGUCUCCUAGUGGGUAAAAUAUUAAGAAGAAAUUCUUAAUAA [jun14#1] (Eterna round: R97, puzzle: Sensor, turn-off variant 1) | – | 125 nM | 145 nM | –
ACCUAUGAGGAGGAUAUACGGUGCGAAAGGAUGGUAGAAGGCUUCACAUGAGGAUCACCCAUGUCUAUAAGCGA [EX6 #87] (Eterna round: R97, puzzle: Exclusion 6) | – | 27.8 nM | 18.3 nM | –
ACGCAUUGCCAAAGGUAGUGCGUUACAUGAGGAUCACCCAUGUAGGAUAUGGUAGGCAAAGCUUACCAGAAGGACAUGAUAAUU [Mat - Exclusion NG 3 - Mod of JL - D6] (Eterna round: R96, puzzle: Exclusion NG 3) | – | 227 nM | 51.2 nM | apparent KD of MS2 coat protein [4]: 44.8 nM
CAGUACUGAGGAUAUACAUGAGGAUCACCCAUGUGGUCCAGCUAGGAAACUAGCACGUGUAGAAGGCAGUACUG [Ex3: 840] (Eterna round: R96, puzzle: Exclusion 3) | – | 58.3 nM | 45.7 nM | apparent KD of MS2 coat protein [4]: 55.3 nM
AUAAUCGUAGGAUAUCAUUAGCCCUACAUGAGGAUCACCCAUGUGGGCUGGUGAGGGCGGUGAGAAGGACGAGAGA [EX5 B.1] (Eterna round: R97, puzzle: Exclusion 5) | – | 25.1 nM | 18.4 nM | –
CCUCCACAUGAGGAUCACCCAUGUCAGGAUAUCGUGUGCGCGUUUUCGGUCUUUCGCGCGAGAAGGGACGUCUG (puzzle: Exclusion 1) | 24 nM | – | – | –
AAAUGUUGUAAGGAUAUUGAAUAAGAAAACUUACGAGAAGGUGCGACAUGAGGAUCACCCAUGUUCCCAAAGGG [Alacar 2] (Eterna round: R97, puzzle: Exclusion 6) | – | 31.5 nM | 30.4 nM | –
UUUUCACAUGAGGAUCACCCAUGUGAGGAUAUGGAUUCGCUGGCCGUAGCCAGUGGAUCCAGAAGGCGCAUGAU [JL-ex1-4.06] (Eterna round: R97, puzzle: Exclusion 1) | – | 36 nM | 32.8 nM | –
AAAACUGAAGGAUAUGCCAGGGUGAGAGCUGGUGACGUUUAACAUGAGGAUCACCCAUGUAGAAGGUCAAAACA [Usate] (puzzle: Exclusion 2) | 12.6 nM | – | – | –
GCCAGAGCAGGAUAUUCAAUAUCACACAUGAGGAUCACCCAUGUCUGGCGAAAGCUAGAGGGAGAAGGGCUCUGGC [Mat - Exclusion 5 - Eli mod - D97] (puzzle: Exclusion 5) | 38.8 nM | – | – | apparent KD of MS2 coat protein [1]: 17.9 nM; apparent KD of MS2 coat protein [3]: 55.2 nM
CGAAUGUCAGGAUAUCGUGCAUACAACGAAAGUUCUAUGUGCGAGAAGGGACAUGAGGAUCACCCAUGUCUUCG [Omei Ex4 A14] (Eterna round: R97, puzzle: Exclusion 4) | – | 75.6 nM | 27.1 nM | –
AGCUAGAUAGGAUAUGCCCGGGAUAACAUGAGGAUCACCCAUGUGGCCGAAUCAAGUCCAGCAGAAGGGUUUGGGA [Mod of ViennaUCT 11 - Jieux - Exclusion 5] (Eterna round: R97, puzzle: Exclusion 5) | – | 43.2 nM | 34.8 nM | –
